Molecular target: T1, Cdr2-flag (S. pombe, UniProt P87050 1-775)
T1 sequence (looked up): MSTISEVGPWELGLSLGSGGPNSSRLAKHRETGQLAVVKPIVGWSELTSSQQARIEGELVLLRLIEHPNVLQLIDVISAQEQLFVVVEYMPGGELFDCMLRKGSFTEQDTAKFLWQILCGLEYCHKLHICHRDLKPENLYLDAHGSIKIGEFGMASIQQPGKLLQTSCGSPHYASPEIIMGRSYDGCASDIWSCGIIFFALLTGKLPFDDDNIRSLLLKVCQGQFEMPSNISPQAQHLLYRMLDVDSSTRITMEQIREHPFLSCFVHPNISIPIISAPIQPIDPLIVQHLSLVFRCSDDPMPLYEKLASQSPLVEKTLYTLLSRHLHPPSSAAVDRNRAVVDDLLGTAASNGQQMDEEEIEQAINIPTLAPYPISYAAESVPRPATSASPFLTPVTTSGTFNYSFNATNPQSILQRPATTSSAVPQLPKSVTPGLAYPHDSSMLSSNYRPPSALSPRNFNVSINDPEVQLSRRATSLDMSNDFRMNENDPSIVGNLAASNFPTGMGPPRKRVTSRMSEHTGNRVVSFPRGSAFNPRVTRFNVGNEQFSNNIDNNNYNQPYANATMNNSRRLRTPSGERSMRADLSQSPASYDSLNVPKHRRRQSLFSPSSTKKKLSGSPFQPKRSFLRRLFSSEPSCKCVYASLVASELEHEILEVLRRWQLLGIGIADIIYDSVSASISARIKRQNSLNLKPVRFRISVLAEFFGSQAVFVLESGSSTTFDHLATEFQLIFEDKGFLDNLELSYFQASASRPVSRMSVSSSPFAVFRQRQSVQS
Assay: co-IP

B1: Mid1–9A-myc13 (natural protein, S. pombe, UniProt P78953 1-920, looked up)
chain: MKEQEFSYREAKDVSLDSKGLENSFLSSPNREKTPLFFEGNSNETSGYDQTKNFTHGDGDMSLGNLSELNVATDLLESLDLRSMYMHGYGHLDSSFSSQHSPDNRKRMSATSVFKRINSEEEGRIPALTYSAGTMNSTSSSTASLKGADIVADYETFNPDQNLAELSFDRSKSSRKRAVEVAEFSRAKTMSPLEYTVQHPYQSHNELSTNPARARAGAVPNLARIPADVKPVPPAHLSASSTVGPRILPSLPKDTTEDNPALERVETTASLDMDYKPLEPLAPIQEAPVEDTSEPFSSVPEATLDDSDISTESLRKKVLAKMEAKRISAGSSYASTLRKVYDFSELSLPTNGKDYDELYLQSSRNSEPEISTIINDSLQQENMDEDISATSIPKSQAAYGHGSVTYHEVPRYNLTSASVGYSISSQRGRIKASSTIDNLSAILSSEDLRHPAMQPVPGTKRTYANYCENEPNKSSQSLVSSESHNVEGWNYSETGTVGFYDPSAEISASIDELRQSTPVARDSELLSRAHAFDLNRLDLPSQDKSTSYEVPNGTENQSPRPVTSLGFVNETFFEEKPKAPLPLGRFYIHLNSILNISISEVHSPIKIIVNTPTQNMQLPWQAVNGNNRLDHDFAFHVDDNFKVSFMFLDIPIEDKSNGSKGVSATKDVSNGKPAETKSKARKFFDKLFNRRKKRKLNKAAAVENSKAKKSVVIKKVSGTATLNLGNVKDSCFGKAFNVEIPIISRGFLEAIPVKINSIGKRTLGNLTLTCLYIPELSVPEQELPFTLEQATMDLRHVRSNYLYNEGYLYRLEDSSIRRRFVVLRSKQLNFYAEKGGQYLDTFQLSKTVVSIPMVNFSEAVSNLGLVAGILATSVDRRHVQLFADSKKVCQKWLQVMNSRSFALDRGTEKLWLQEYVNFMA
- fold co-immunoprecipitated against Mid1-myc13: ~2 fold

From paper PMC6424596 (Current biology : CB, 2019)
